The values that follow come from US20210221867A1 (Novo Nordisk, published 2021).

B1: Ac-c[Cys-THAZ-His-D-F-Phe-His-Trp-Cys]-Pro-Pro-D-Arg-Glu-Nle-Arg-Arg-NH2 (peptide)
peptide: Ac-C[Thz]H[dPhe(4-F)]HWCPP[dR]E[Nle]RR-NH2
modifications: disulfide 1-7
SMILES: CCCC[C@H](NC(=O)[C@H](CCC(=O)O)NC(=O)[C@@H](CCCNC(=N)N)NC(=O)[C@@H]1CCCN1C(=O)[C@@H]1CCCN1C(=O)[C@@H]1CSSC[C@H](NC(C)=O)C(=O)N2CSC[C@H]2C(=O)N[C@@H](Cc2c[nH]cn2)C(=O)N[C@H](Cc2ccc(F)cc2)C(=O)N[C@@H](Cc2c[nH]cn2)C(=O)N[C@@H](Cc2c[nH]c3ccccc23)C(=O)N1)C(=O)N[C@@H](CCCNC(=N)N)C(=O)N[C@@H](CCCNC(=N)N)C(N)=O
notes: Synthetic cyclic peptide; also called Chem. 17
B2: Ac-Arg-c[Cys-Pro-His-D-Phe-His-Trp-Cys]-Pro-Pro-D-Arg-Glu-Nle-D-Arg-D-Arg-NH2 (peptide)
peptide: Ac-RCPH[dF]HWCPP[dR]E[Nle][dR][dR]-NH2
modifications: disulfide 2-8
SMILES: CCCC[C@H](NC(=O)[C@H](CCC(=O)O)NC(=O)[C@@H](CCCNC(=N)N)NC(=O)[C@@H]1CCCN1C(=O)[C@@H]1CCCN1C(=O)[C@@H]1CSSC[C@H](NC(=O)[C@H](CCCNC(=N)N)NC(C)=O)C(=O)N2CCC[C@H]2C(=O)N[C@@H](Cc2c[nH]cn2)C(=O)N[C@H](Cc2ccccc2)C(=O)N[C@@H](Cc2c[nH]cn2)C(=O)N[C@@H](Cc2c[nH]c3ccccc23)C(=O)N1)C(=O)N[C@H](CCCNC(=N)N)C(=O)N[C@H](CCCNC(=N)N)C(N)=O
notes: Synthetic cyclic peptide; also called Chem. 5
B3: Ac-c[Cys-Pro-His-D-Phe-His-Trp-Cys]-Pro-Pro-D-Arg-Glu-Nle-Arg-Arg-NH2 (peptide)
peptide: Ac-CPH[dF]HWCPP[dR]E[Nle]RR-NH2
modifications: disulfide 1-7
SMILES: CCCC[C@H](NC(=O)[C@H](CCC(=O)O)NC(=O)[C@@H](CCCNC(=N)N)NC(=O)[C@@H]1CCCN1C(=O)[C@@H]1CCCN1C(=O)[C@@H]1CSSC[C@H](NC(C)=O)C(=O)N2CCC[C@H]2C(=O)N[C@@H](Cc2c[nH]cn2)C(=O)N[C@H](Cc2ccccc2)C(=O)N[C@@H](Cc2c[nH]cn2)C(=O)N[C@@H](Cc2c[nH]c3ccccc23)C(=O)N1)C(=O)N[C@@H](CCCNC(=N)N)C(=O)N[C@@H](CCCNC(=N)N)C(N)=O
notes: Synthetic cyclic peptide; also called Chem. 3
B4: Ac-c[Cys-Pro-His-D-Phe-His-Trp-Cys]-Pro-Pro-D-Arg-Glu-Nle-D-Arg-D-Arg-NH2 (peptide)
peptide: Ac-CPH[dF]HWCPP[dR]E[Nle][dR][dR]-NH2
modifications: disulfide 1-7
SMILES: CCCC[C@H](NC(=O)[C@H](CCC(=O)O)NC(=O)[C@@H](CCCNC(=N)N)NC(=O)[C@@H]1CCCN1C(=O)[C@@H]1CCCN1C(=O)[C@@H]1CSSC[C@H](NC(C)=O)C(=O)N2CCC[C@H]2C(=O)N[C@@H](Cc2c[nH]cn2)C(=O)N[C@H](Cc2ccccc2)C(=O)N[C@@H](Cc2c[nH]cn2)C(=O)N[C@@H](Cc2c[nH]c3ccccc23)C(=O)N1)C(=O)N[C@H](CCCNC(=N)N)C(=O)N[C@H](CCCNC(=N)N)C(N)=O
notes: Synthetic cyclic peptide; also called Chem. 4

A word on the IC50: it is the concentration that gives 50% inhibition. Low values mean inhibition by little substance, high ones a need for much substance.

Positions of bridges follow the written chain, without caps; N, C: chain ends. Non-standard residues stand in square brackets, D forms with d. dPhe(4-F) = N[C@H](Cc1ccc(F)cc1)C(=O)O; Nle = CCCC[C@H](N)C(=O)O; Thz = O=C(O)[C@@H]1CSCN1

T2 sequence (P32245 whole entry): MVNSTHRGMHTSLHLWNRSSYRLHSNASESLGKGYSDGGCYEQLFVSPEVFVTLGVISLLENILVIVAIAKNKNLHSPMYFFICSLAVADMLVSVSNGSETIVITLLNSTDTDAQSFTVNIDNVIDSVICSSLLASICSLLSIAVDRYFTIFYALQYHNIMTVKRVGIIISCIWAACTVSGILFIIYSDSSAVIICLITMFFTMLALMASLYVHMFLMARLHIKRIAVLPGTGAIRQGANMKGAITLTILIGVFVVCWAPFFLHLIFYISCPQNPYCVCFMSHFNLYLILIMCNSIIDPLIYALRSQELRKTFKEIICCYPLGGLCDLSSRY

For the first test, the target named is T1, human MC1 receptor (human, UniProt Q01726 1-317). Kind of test: cell-based or functional assay.
T1 sequence (Q01726 whole entry): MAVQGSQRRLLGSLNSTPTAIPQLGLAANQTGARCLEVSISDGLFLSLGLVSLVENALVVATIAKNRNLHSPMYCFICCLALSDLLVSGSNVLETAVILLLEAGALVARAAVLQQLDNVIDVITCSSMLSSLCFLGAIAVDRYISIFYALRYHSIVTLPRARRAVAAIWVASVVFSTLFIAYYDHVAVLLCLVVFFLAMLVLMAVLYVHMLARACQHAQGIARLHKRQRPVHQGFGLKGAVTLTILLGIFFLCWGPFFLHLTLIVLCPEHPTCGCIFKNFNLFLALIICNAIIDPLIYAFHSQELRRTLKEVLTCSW
In the case of B1, the “MC1R cAMP EC50” value turned out to be 888 nM.

In the case of B2, the “MC1R cAMP EC50” value came out at 172 nM.

Turning to B3, the “MC1R cAMP EC50” value came to 778 nM.

As to B4, the “MC1R cAMP EC50” value worked out at 1070 nM.

The next test addresses T2, human MC4 receptor (human, UniProt P32245 1-332). The test is described as follows: cell-based or functional assay.
For the molecule B1, the “MC4R cAMP EC50” value is 0.25 nM.

B2: the “MC4R cAMP EC50” value is 0.22 nM.

Regarding B3, the “MC4R cAMP EC50” value turned out to be 1.4 nM.

On to B4, for which the “MC4R cAMP EC50” value is 0.53 nM.

For the next test, the target named is T1, human MC1 receptor. The test is described as follows: SPA competition binding, displacement of 125I-NDP-α-MSH, BHK membranes with human MC1R. The protocol:
(§1) The SPA Binding assay was performed in 96-well white opaque plates. Each well contained: 0.5 mg PVT-WGA SPA beads, MC1 receptor expressing membrane diluted to give approximately 10% specific tracer binding, 50.000 dpm ¹²⁵I-NDP-α-MSH and relevant dilutions of test compound. The final volume in each well was 200 μl. […] Plates were incubated overnight (22-24 hours) at room temperature before counting for 2 minutes per well, using a TopCount NXT scintillation counter. Displacement of radio ligand is measured as reduction in light emission from SPA beads, and IC₅₀ values are calculated by nonlinear regression analysis of sigmoidal dose-response curves in GraphPad Prism (GraphPad Software, La Jolla, Calif., USA).
(In general: Loss of bound radioactivity is the signal in a displacement assay; it reports binding, not function.)
Regarding B1, the IC50 was determined as 262 nM.

Turning to B2, the IC50 was 39.7 nM.

B3 returned a 50% inhibitory concentration (IC50) of 511 nM.

Consider B4, for which the concentration for half-maximal inhibition (IC50) was 394 nM.

Another test concerns the target T2, human MC4 receptor. Kind of test: SPA competition binding, displacement of 125I-NDP-α-MSH, BHK membranes with human MC4R. The protocol:
as §1, with “MC4” for “MC1”
As for B1, the concentration for half-maximal inhibition (IC50) was determined as 0.46 nM.

On to B2, for which the IC50 worked out at 0.23 nM.

On to B3, for which the IC50 was 1.03 nM.

The molecule B4 returned an IC50 of 0.58 nM.
